Source: paper PMC3919264, “The crystal structure and biochemical characterization of Kif15: a bifunctional molecular motor involved in bipolar spindle formation and neuronal development” (Acta Crystallographica Section D: Biological Crystallography, 2013)

Biological target: taxol-polymerized microtubules from bovine brain tubulin (bovine (purified from bovine brain), UniProt Q6B856 1-445)
Test: cell-based or functional assay

MT activation of Mant-ADP release, stopped flow, 25°C, various MT concentrations with chasing Mg2+-ATP (MTs here from pig brain tubulin; preliminary data): ~1000 fold
B1: Homo sapiens Kif15 motor domain with cover strand and neck linker (Kif15 1-375) (domain or fragment, human, UniProt Q9NS87 1-375, looked up)
chain: MAPGCKTELRSVTNGQSNQPSNEGDAIKVFVRIRPPAERSGSADGEQNLCLSVLSSTSLRLHSNPEPKTFTFDHVADVDTTQESVFATVAKSIVESCMSGYNGTIFAYGQTGSGKTFTMMGPSESDNFSHNLRGVIPRSFEYLFSLIDREKEKAGAGKSFLCKCSFIEIYNEQIYDLLDSASAGLYLREHIKKGVFVVGAVEQVVTSAAEAYQVLSGGWRNRRVASTSMNRESSRSHAVFTITIESMEKSNEIVNIRTSLLNLVDLAGSERQKDTHAEGMRLKEAGNINRSLSCLGQVITALVDVGNGKQRHVCYRDSKLTFLLRDSLGGNAKTAIIANVHPGSRCFGETLSTLNFAQRAKLIKNKAVVNEDTQG
